Results: paper PMC11623273
Where two headings read alike, the source gives them in different places.

Columns and labels:
Fab AP33 (Mus musculus) [1] = settings: other; Disulfide-linked heavy and light Fab chains. No candidate fits and the paper prints no AP33 sequence. PDB 4GAG (murine AP33 Fab with the E2 412-423 peptide) is cited from memory; entities 1 and 2 are assumed to be the antibody chains, and the peptide entity is excluded. The C-terminal double Strep tag on the heavy chain is omitted. The constant-region species of the S2-expressed Fab is not given; modification not given
Fab AP33 (Mus musculus) [2] = settings: domain or fragment; Disulfide-linked heavy and light Fab chains. No candidate fits and the paper prints no AP33 sequence. PDB 4GAG (murine AP33 Fab with the E2 412-423 peptide) is cited from memory; entities 1 and 2 are assumed to be the antibody chains, and the peptide entity is excluded. The C-terminal double Strep tag on the heavy chain is omitted. The constant-region species of the S2-expressed Fab is not given; modification not given

Binder | Kd (Fab AP33 (Mus musculus) [1]) [nM] | Kd (Fab AP33 (Mus musculus) [2]) [nM]
E2_S2_1 (design 2K6Z_01), epitope scaffold displaying HCV E2 epitope I (protein) MGSFTEGWVRFSPGPNAAAYLTLENPGDLPLRLVGARTPVAERVELWETQLINTNGSWHIGSRPVPFLEVPPKGRVELSPGGYYFHLLGLKRPLKAGEEVELDLLFAGGKVLKVVLPVEARGSENLYFQ | 44.9 | –
soluble HCV E2 ectodomain (sE2) (protein) GTTTVGGAVARSTNVIAGVFSHGPQQNIQLINTNGSWHINRTALNCNDSLNTGFLAALFYTNRFNSSGCPGRLSACRNIEAFRIGWGTLQYEDNVTNPEDMRPYCWHYPPKPCGVVPARSVCGPVYCFTPSPVVVGTTDRRGVPTYTWGENETDVFLLNSTRPPQGSWFGCTWMNSTGFTKTCGAPPCRTRADFNASTDLLCPTDCFRKHPDATYIKCGSGPWLTPKCLVHYPYRLWHYPCTVNFTIFKIRMYVGGVEHRLTAACNFTRGDRCDLEDRDRSQLSPLLHSTTEWAILPCTYSDLPALSTGLLHLHQNIVDVQYMYGLSPAITKYVVR | – | 58.4
